The target of test [1] is SUZ12-3XFLAG PRC2.1mut (loss-of-PRC2.1 mutant, (338–353)-to-GSGSGS) (human (edited endogenous locus in WTC-11 hiPSCs)), Q15022. The test can be described thus: affinity purification with mass spectrometry. The settings on record: remark: other sources report otherwise.
For test [2], the target named is SUZ12-3XFLAG PRC2.2mut (loss-of-PRC2.2 mutant, F99A, R103A, L105A, I106A) (human (edited endogenous locus in WTC-11 hiPSCs)), Q15022. Description: affinity purification with mass spectrometry. The following applies: remark: other sources report otherwise.

B1: EPOP, A6NHQ4 1-379 (natural protein)
chain: METLCPAPRLAVPASPRGSPCSPTPRKPCRGTQEFSPLCLRALAFCALAKPRASSLGPGPGELAARSPVLRGPQAPLRPGGWAPDGLKHLWAPTGRPGVPNTAAGEDADVAACPRRGEEEEGGGGFPHFGVRSCAPPGRCPAPPHPRESTTSFASAPPRPAPGLEPQRGPAASPPQEPSSRPPSPPAGLSTEPAGPGTAPRPFLPGQPAEVDGNPPPAAPEAPAASPSTASPAPAAPGDLRQEHFDRLIRRSKLWCYAKGFALDTPSLRRGPERPPAKGPARGAAKKRRLPAPPPRTAQPRRPAPTLPTTSTFSLLNCFPCPPALVVGEDGDLKPASSLRLQGDSKPPPAHPLWRWQMGGPAVPEPPGLKFWGINMDES
Consider B1, for which the fold less enriched than with WT SUZ12 in test [1] turned out to be 48 fold.

B2: JARID2 (endogenous, hiPSCs), Q92833 1-1246 (natural protein)
chain: MSKERPKRNIIQKKYDDSDGIPWSEERVVRKVLYLSLKEFKNSQKRQHAEGIAGSLKTVNGLLGNDQSKGLGPASEQSENEKDDASQVSSTSNDVSSSDFEEGPSRKRPRLQAQRKFAQSQPNSPSTTPVKIVEPLLPPPATQISDLSKRKPKTEDFLTFLCLRGSPALPNSMVYFGSSQDEEEVEEEDDETEDVKTATNNASSSCQSTPRKGKTHKHVHNGHVFNGSSRSTREKEPVQKHKSKEATPAKEKHSDHRADSRREQASANHPAAAPSTGSSAKGLAATHHHPPLHRSAQDLRKQVSKVNGVTRMSSLGAGVTSAKKMREVRPSPSKTVKYTATVTKGAVTYTKAKRELVKDTKPNHHKPSSAVNHTISGKTESSNAKTRKQVLSLGGASKSTGPAVNGLKVSGRLNPKSCTKEVGGRQLREGLQLREGLRNSKRRLEEAHQAEKPQSPPKKMKGAAGPAEGPGKKAPAERGLLNGHVKKEVPERSLERNRPKRATAGKSTPGRQAHGKADSASCENRSTSQPESVHKPQDSGKAEKGGGKAGWAAMDEIPVLRPSAKEFHDPLIYIESVRAQVEKFGMCRVIPPPDWRPECKLNDEMRFVTQIQHIHKLGRRWGPNVQRLACIKKHLKSQGITMDELPLIGGCELDLACFFRLINEMGGMQQVTDLKKWNKLADMLRIPRTAQDRLAKLQEAYCQYLLSYDSLSPEEHRRLEKEVLMEKEILEKRKGPLEGHTENDHHKFHPLPRFEPKNGLIHGVAPRNGFRSKLKEVGQAQLKTGRRRLFAQEKEVVKEEEEDKGVLNDFHKCIYKGRSVSLTTFYRTARNIMSMCFSKEPAPAEIEQEYWRLVEEKDCHVAVHCGKVDTNTHGSGFPVGKSEPFSRHGWNLTVLPNNTGSILRHLGAVPGVTIPWLNIGMVFSTSCWSRDQNHLPYIDYLHTGADCIWYCIPAEEENKLEDVVHTLLQANGTPGLQMLESNVMISPEVLCKEGIKVHRTVQQSGQFVVCFPGSFVSKVCCGYSVSETVHFATTQWTSMGFETAKEMKRRHIAKPFSMEKLLYQIAQAEAKKENGPTLSTISALLDELRDTELRQRRQLFEAGLHSSARYGSHDGSSTVADGKKKPRKWLQLETSERRCQICQHLCYLSMVVQENENVVFCLECALRHVEKQKSCRGLKLMYRYDEEQIISLVNQICGKVSGKNGSIENCLSKPTPKRGPRKRATVDVPPSRLSASSSSKSASSSS
On to B2, for which the fold less enriched than with WT SUZ12 in test [2] worked out at 13 fold.

B3: MTF2 (endogenous, hiPSCs), Q9Y483 1-593 (natural protein)
chain: MRDSTGAGNSLVHKRSPLRRNQKTPTSLTKLSLQDGHKAKKPACKFEEGQDVLARWSDGLFYLGTIKKINILKQSCFIIFEDSSKSWVLWKDIQTGATGSGEMVCTICQEEYSEAPNEMVICDKCGQGYHQLCHTPHIDSSVIDSDEKWLCRQCVFATTTKRGGALKKGPNAKALQVMKQTLPYSVADLEWDAGHKTNVQQCYCYCGGPGDWYLKMLQCCKCKQWFHEACVQCLQKPMLFGDRFYTFICSVCSSGPEYLKRLPLQWVDIAHLCLYNLSVIHKKKYFDSELELMTYINENWDRLHPGELADTPKSERYEHVLEALNDYKTMFMSGKEIKKKKHLFGLRIRVPPVPPNVAFKAEKEPEGTSHEFKIKGRKASKPISDSREVSNGIEKKGKKKSVGRPPGPYTRKMIQKTAEPLLDKESISENPTLDLPCSIGRTEGTAHSSNTSDVDFTGASSAKETTSSSISRHYGLSDSRKRTRTGRSWPAAIPHLRRRRGRLPRRALQTQNSEIVKDDEGKEDYQFDELNTEILNNLADQELQLNHLKNSITSYFGAAGRIACGEKYRVLARRVTLDGKVQYLVEWEGATAS
B3 gave a fold less enriched than with WT SUZ12 in test [1] of 35 fold.

The values are drawn from article PMC12132310.
